T1: murine Ang-2, His-tagged (mouse, UniProt O35608 19-496)
T1 construct: also called mAng-2; mAng-2-His
T1 sequence (looked up): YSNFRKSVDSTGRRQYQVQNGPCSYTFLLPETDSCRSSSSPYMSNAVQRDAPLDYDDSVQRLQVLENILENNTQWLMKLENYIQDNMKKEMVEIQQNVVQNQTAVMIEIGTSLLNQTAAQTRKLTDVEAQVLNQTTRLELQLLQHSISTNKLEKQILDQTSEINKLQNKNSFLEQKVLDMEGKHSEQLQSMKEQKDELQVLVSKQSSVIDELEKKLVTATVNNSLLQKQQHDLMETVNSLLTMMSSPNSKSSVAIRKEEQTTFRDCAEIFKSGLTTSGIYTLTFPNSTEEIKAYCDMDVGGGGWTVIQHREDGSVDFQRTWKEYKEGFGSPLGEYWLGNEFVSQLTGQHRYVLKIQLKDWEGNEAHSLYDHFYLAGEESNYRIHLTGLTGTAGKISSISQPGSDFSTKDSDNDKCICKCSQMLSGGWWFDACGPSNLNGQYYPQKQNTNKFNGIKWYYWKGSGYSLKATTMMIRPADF

T2: human angiopoietin-2 (human, UniProt O15123 19-496, limits assumed)
T2 construct: also called hAng-2; huAng-2
T2 sequence (looked up): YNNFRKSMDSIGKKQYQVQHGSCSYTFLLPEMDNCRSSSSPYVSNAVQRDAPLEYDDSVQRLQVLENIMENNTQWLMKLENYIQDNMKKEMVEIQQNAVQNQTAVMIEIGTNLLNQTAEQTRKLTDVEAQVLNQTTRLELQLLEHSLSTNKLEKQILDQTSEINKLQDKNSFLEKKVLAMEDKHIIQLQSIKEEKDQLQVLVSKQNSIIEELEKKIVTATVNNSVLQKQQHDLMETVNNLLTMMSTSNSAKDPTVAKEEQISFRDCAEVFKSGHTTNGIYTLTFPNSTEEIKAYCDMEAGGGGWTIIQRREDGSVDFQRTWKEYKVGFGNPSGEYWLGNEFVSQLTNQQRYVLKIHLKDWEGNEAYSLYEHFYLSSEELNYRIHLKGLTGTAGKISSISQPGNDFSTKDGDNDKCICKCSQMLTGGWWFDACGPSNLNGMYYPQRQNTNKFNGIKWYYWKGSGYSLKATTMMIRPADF


Assays:
murine Ang-2, His-tagged = target: T1, murine Ang-2, His-tagged; assay: Neutralization ELISA: antibody titrated against 1 nM Tie2-Fc on plate-bound mAng-2
human angiopoietin-2 = target: T2, human angiopoietin-2; assay: Neutralization ELISA: antibody titrated against 1 nM Tie2-Fc on plate-bound hAng-2
Description: Microtiter plates to which human Ang-2 polypeptide was bound were prepared as described for the Affinity ELISA. […] Next, about 100 microliters per well of goat anti-mouse-IgG-HRP (Pierce Chemical CO., catalog #31432) was added at a dilution of 1:10,000 in PBS containing about 1 percent BSA. Plates were incubated at room temperature for about 1 hour, after which they were washed five times with PBS containing about 0.1 percent Tween-20. About 100 microliters per well of TMB substrate (described above) was then added and color was allowed to develop. Absorbance was then read in a spectrophotomer at 370 nm.
Seventeen of the antibodies and a negative control IgG1 (referred to as RDB1) were tested using affinity and neutralization ELISA (as described in Example 3 above) as well as the BIAcore neutralization assay to determine their affinity, neutralization, and specificity capabilities.

Row | Binder | IC50 (murine Ang-2, His-tagged) | IC50 (human angiopoietin-2)
1 | Ab 555 (antibody, human IgG1, kappa, V domains shown, Fully human IgG1 kappa) VH: QVQLQESGGGVVQPGRSLRLSCAASGFTFSSYAMHWVRQAPGKGLEWVAVISYDGSNKYYADSVKGRFTISRDNSKNTLYLQMNSLRAEDTAVYYCARSASDHYYDSSGYYSDAFDIWGQGTMVTVSS VL: not shown | 1.76 nM | 2.21 nM
2 | Ab 528 (antibody, human IgG1, lambda, V domains shown, Fully human IgG1 lambda) VH: QVQLVQSGAEVKKPGSSVKVSCKASGGTFSSYAISWVRQAPGQGLEWMGGIIPIFGTANYAQKFQGRVTITADESTSTAYMELSSLRSEDTAVYYCARGVVGDFDWLSFFDYWGQGTLVTVSS VL: SYELTQPPSVSVSPGQTASITCSGDKLGYTYTSWFQQKPGQSPVLVIFQDFKRPSGIPERFSGSNSGNTATLTISGTQAMDEADYYCQAWDSTTAVVFGTGTKVTVLG | 0.73 nM | 1.37 nM
3 | Ab 533 (antibody, human IgG1, kappa, V domains shown, also called clone 533) VH: EVQLVQSGGGVVQPGRSLRLSCAASGFTFSSYGMHWVRQAPGKGLEWVSYISSSGSTIYYADSVKGRFTISRDNAKNSLYLQMNSLRAEDTAVYYCARDLLDYDILTGYGYWGQGTLVTVSS VL: not shown | 0.08 nM | 0.3 nM
4 | Ab 553 (antibody, human IgG1, kappa, V domains shown, Fully human IgG1 kappa) VH: QVQLVQSGAEVKKPGASVKVSCKASGYTFTSYAMHWVRQAPGQRLEWMGWINAGNGNTKYSQKFQGRVTITRDTSASTAYMELSGLRSEDTAVYYCARGVDDYGGNSWAFDIWGQGTMVTVSS VL: DIVMTQSPLSLPVTPGEPASISCRSSQSLLHSNGYNYLDWYLQKPGQSPQLLIYLGSNRASGVPDRFTGSGSATDFTLRISRVEAEDVGVYYCMQALQTPLTFGGGTKVEIKR | 1.41 nM | 1.47 nM

The remaining binders from weak to strong by IC50 (murine Ang-2, His-tagged), led by results:

Row | IC50 (murine Ang-2, His-tagged) | IC50 (human angiopoietin-2) | Binder
5 | 2.45 nM | 2.81 nM | Ab 535 (antibody, human IgG1, lambda, V domains shown, Fully human IgG1 lambda) VH: QVQLVQSGAEVKKPGSSVKVSCKASGGTFSSYAISWVRQAPGQGLEWMGGIIPIFGTANYAQKFQGRVTITADKSTSTAYMELSSLRSEDTAVYYCAAFSPFTETDAFDIWGQGTMVTVSS VL: QSVLTQPPSVSAAPGQKVTISCSGSNSNIGNNFVSWYQQLPGTAPKLLVYDNNKRPSGIPDRFSGSKSGTSATLGITGLQTGDEADYYCGTWDSSLSAAEVVFGGGTKLTVLG
6 | 1.67 nM | 2.15 nM | Ab 531 (antibody, human IgG1, lambda, V domains shown, Fully human IgG1 lambda) VH: EVQLVQSGAEVKKPGSSVKVSCKASGGTFSSYAISWVRQAPGQGLEWMGGIIPILGIANYAQKFQGRVTITADKSTNTAYMELTSLTSDDTAVYYCARDREDTAMVFNYWGQGTLVTVSS VL: QSVLTQPPSVSAAPGQKVTVSCSGSSSNIGNNYVSWYQQLPGTAPKLLIYDNNKRPSGIPDRFSGSKSGTSATLGITGLQTGDEADYYCGTWDSSLSAFWVFGGGTKLTVLG
7 | 1.53 nM | 0.7 nM | Ab 540 (antibody, human IgG1, lambda, V domains shown, Fully human IgG1 lambda) VH: QVQLVQSGAEVKKPGSSVKVSCKASGGTFSSYAISWVRQAPGQGLEWMGGIIPILGIANYAQKFQGRVTITADKFTSTAYMELSSLGSEDTAVYYCARAVPGTEDAFDIWGQGTMVTVSS VL: QSVLTQPPSVSAAPGQKVTISCSGSSSNIGANYVSWYQQLPGTAPKLLIYNNNKRPSGIPDRFSGSKSDTSATLGITGLQTGDEADYYCGAWDSSLSASWVFGGGTKLTVLG
8 | 0.62 nM | 0.56 nM | Ab 537 (antibody, human IgG1, V domains shown, Fully human IgG1 lambda; also called clone 537) VH: QVQLVQSGAEVKKPGSSVKVSCKASGGTFSSYAISWVRQAPGQGLEWMGGIIPILGIANYAQKFQGRVTITADKSTSTAYMELSGLGSEDTAVYYCARGSSDAAVAGMWGQGTLVTVSS VL: QSVLTQPPSVSAAPGQDVTISCSGNNSNIGNNYVSWYQQVPGTAPKLLVYDNHKRPSGISDRFSGSKSDTSATLDITGLQPGDEADYYCGTWDTSLSANWVFGGGTKLTVLR
9 | 0.24 nM | 0.51 nM | Ab 543 (antibody, human IgG1, kappa, V domains shown, Fully human IgG1 kappa) VH: QVQLVQSGAEVKKPGSSVKVSCKASGGTFSSYAISWVRQAPGQGLEWMGRIIPILGIANYAQKFQGRVTITADKSTSTAYMELSSLRSEDTAVYYCARPYYDFWSGPGGMDVWGQGTTVTVSS VL: not shown
